# B1: Huntingtin-interacting protein 1-related protein (other)
# chain: MNSIKNVPARVLSRRPGHSLEAEREQFDKTQAISISKAINTQEAPVKEKHARRIILGTHHEKGAFTFWSYAIGLPLPSSSILSWKFCHVLHKVLRDGHPNVLHDCQRYRSNIREIGDLWGHLHDRYGQLVNVYTKLLLTKISFHLKHPQFPAGLEVTDEVLEKAAGTDVNNIFQLTVEMFDYMDCELKLSESVFRQLNTAIAVSQMSSGQCRLAPLIQVIQDCSHLYHYTVKLLFKLHSCLPADTLQGHRDRFHEQFHSLRNFFRRASDMLYFKRLIQIPRLPEGPPNFLRASALAEHIKPVVVIPEEAPEDEEPENLIEISTGPPAGEPVVVADLFDQTFGPPNGSVKDDRDLQIESLKREVEMLRSELEKIKLEAQRYIAQLKSQVNALEGELEEQRKQKQKALVDNEQLRHELAQLRAAQLEGERSQGLREEAERKASATEARYNKLKEKHSELVHVHAELLRKNADTAKQLTVTQQSQEEVARVKEQLAFQVEQVKRESELKLEEKSDQLEKLKRELEAKAGELARAQEALSHTEQSKSELSSRLDTLSAEKDALSGAVRQREADLLAAQSLVRETEAALSREQQRSSQEQGELQGRLAERESQEQGLRQRLLDEQFAVLRGAAAEAAGILQDAVSKLDDPLHLRCTSSPDYLVSRAQEALDAVSTLEEGHAQYLTSLADASALVAALTRFSHLAADTIINGGATSHLAPTDPADRLIDTCRECGARALELMGQLQDQQALRHMQASLVRTPLQGILQLGQELKPKSLDVRQEELGAVVDKEMAATSAAIEDAVRRIEDMMNQARHASSGVKLEVNERILNSCTDLMKAIRLLVTTSTSLQKEIVESGRGAATQQEFYAKNSRWTEGLISASKAVGWGATQLVEAADKVVLHTGKYEELIVCSHEIAASTAQLVAASKVKANKHSPHLSRLQECSRTVNERAANVVASTKSGQEQIEDRDTMDFSGLSLIKLKKQEMETQVRVLELEKTLEAERMRLGELRKQHYVLAGASGSPGEEVAIRPSTAPRSVTTKKPPLAQKPSVAPRQDHQLDKKDGIYPAQLVNY
# B2: Clustered mitochondria protein homolog (other)
# chain: MLLNGDCPESLKKEAAAAEPPRENGLDEAGPGDETTGQEVIVIQDTGFSVKILAPGIEPFSLQVSPQEMVQEIHQVLMDREDTCHRTCFSLHLDGNVLDHFSELRSVEGLQEGSVLRVVEEPYTVREARIHVRHVRDLLKSLDPSDAFNGVDCNSLSFLSVFTDGDLGDSGKRKKGLEMDPIDCTPPEYILPGSRERPLCPLQPQNRDWKPLQCLKVLTMSGWNPPPGNRKMHGDLMYLFVITAEDRQVSITASTRGFYLNQSTAYHFNPKPASPRFLSHSLVELLNQISPTFKKNFAVLQKKRVQRHPFERIATPFQVYSWTAPQAEHAMDCVRAEDAYTSRLGYEEHIPGQTRDWNEELQTTRELPRKNLPERLLRERAIFKVHSDFTAAATRGAMAVIDGNVMAINPSEETKMQMFIWNNIFFSLGFDVRDHYKDFGGDVAAYVAPTNDLNGVRTYNAVDVEGLYTLGTVVVDYRGYRVTAQSIIPGILERDQEQSVIYGSIDFGKTVVSHPRYLELLERTSRPLKILRHQVLNDRDEEVELCSSVECKGIIGNDGRHYILDLLRTFPPDLNFLPVPGEELPEECARAGFPRAHRHKLCCLRQELVDAFVEHRYLLFMKLAALQLMQQNASQLETPSSLENGGPSSLESKSEDPPGQEAGSEEEGSSASGLAKVKELAETIAADDGTDPRSREVIRNACKAVGSISSTAFDIRFNPDIFSPGVRFPESCQDEVRDQKQLLKDAAAFLLSCQIPGLVKDCMEHAVLPVDGATLAEVMRQRGINMRYLGKVLELVLRSPARHQLDHVFKIGIGELITRSAKHIFKTYLQGVELSGLSAAISHFLNCFLSSYPNPVAHLPADELVSKKRNKRRKNRPPGAADNTAWAVMTPQELWKNICQEAKNYFDFDLECETVDQAVETYGLQKITLLREISLKTGIQVLLKEYSFDSRHKPAFTEEDVLNIFPVVKHVNPKASDAFHFFQSGQAKVQQGFLKEGCELINEALNLFNNVYGAMHVETCACLRLLARLHYIMGDYAEALSNQQKAVLMSERVMGTEHPNTIQEYMHLALYCFASSQLSTALSLLYRARYLMLLVFGEDHPEMALLDNNIGLVLHGVMEYDLSLRFLENALAVSTKYHGPKALKVALSHHLVARVYESKAEFRSALQHEKEGYTIYKTQLGEDHEKTKESSEYLKCLTQQAVALQRTMNEIYRNGSSANIPPLKFTAPSMASVLEQLNVINGILFIPLSQKDLENLKAEVARRHQLQEASRNRDRAEEPMATEPAPAGAPGDLGSQPPAAKDPSPSVQG
# B3: Heterogeneous nuclear ribonucleoprotein U-like protein 1 (other)
# chain: MDVRRLKVNELREELQRRGLDTRGLKAELAERLQAALEAEEPDDERELDADDEPGRPGHINEEVETEGGSELEGTAQPPPPGLQPHAEPGGYSGPDGHYAMDNITRQNQFYDTQVIKQENESGYERRPLEMEQQQAYRPEMKTEMKQGAPTSFLPPEASQLKPDRQQFQSRKRPYEENRGRGYFEHREDRRGRSPQPPAEEDEDDFDDTLVAIDTYNCDLHFKVARDRSSGYPLTIEGFAYLWSGARASYGVRRGRVCFEMKINEEISVKHLPSTEPDPHVVRIGWSLDSCSTQLGEEPFSYGYGGTGKKSTNSRFENYGDKFAENDVIGCFADFECGNDVELSFTKNGKWMGIAFRIQKEALGGQALYPHVLVKNCAVEFNFGQRAEPYCSVLPGFTFIQHLPLSERIRGTVGPKSKAECEILMMVGLPAAGKTTWAIKHAASNPSKKYNILGTNAIMDKMRVMGLRRQRNYAGRWDVLIQQATQCLNRLIQIAARKKRNYILDQTNVYGSAQRRKMRPFEGFQRKAIVICPTDEDLKDRTIKRTDEEGKDVPDHAVLEMKANFTLPDVGDFLDEVLFIELQREEADKLVRQYNEEGRKAGPPPEKRFDNRGGGGFRGRGGGGGFQRYENRGPPGGNRGGFQNRGGGSGGGGNYRGGFNRSGGGGYSQNRWGNNNRDNNNSNNRGSYNRAPQQQPPPQQPPPPQPPPQQPPPPPSYSPARNPPGASTYNKNSNIPGSSANTSTPTVSSYSPPQPSYSQPPYNQGGYSQGYTAPPPPPPPPPAYNYGSYGGYNPAPYTPPPPPTAQTYPQPSYNQYQQYAQQWNQYYQNQGQWPPYYGNYDYGSYSGNTQGGTSTQ
# B4: Structural maintenance of chromosomes protein 3 (other)
# chain: MYIKQVIIQGFRSYRDQTIVDPFSSKHNVIVGRNGSGKSNFFYAIQFVLSDEFSHLRPEQRLALLHEGTGPRVISAFVEIIFDNSDNRLPIDKEEVSLRRVIGAKKDQYFLDKKMVTKNDVMNLLESAGFSRSNPYYIVKQGKINQMATAPDSQRLKLLREVAGTRVYDERKEESISLMKETEGKREKINELLKYIEERLHTLEEEKEELAQYQKWDKMRRALEYTIYNQELNETRAKLDELSAKRETSGEKSRQLRDAQQDARDKMEDIERQVRELKTKISAMKEEKEQLSAERQEQIKQRTKLELKAKDLQDELAGNSEQRKRLLKERQKLLEKIEEKQKELAETEPKFNSVKEKEERGIARLAQATQERTDLYAKQGRGSQFTSKEERDKWIKKELKSLDQAINDKKRQIAAIHKDLEDTEANKEKNLEQYNKLDQDLNEVKARVEELDRKYYEVKNKKDELQSERNYLWREENAEQQALAAKREDLEKKQQLLRAATGKAILNGIDSINKVLDHFRRKGINQHVQNGYHGIVMNNFECEPAFYTCVEVTAGNRLFYHIVDSDEVSTKILMEFNKMNLPGEVTFLPLNKLDVRDTAYPETNDAIPMISKLRYNPRFDKAFKHVFGKTLICRSMEVSTQLARAFTMDCITLEGDQVSHRGALTGGYYDTRKSRLELQKDVRKAEEELGELEAKLNENLRRNIERINNEIDQLMNQMQQIETQQRKFKASRDSILSEMKMLKEKRQQSEKTFMPKQRSLQSLEASLHAMESTRESLKAELGTDLLSQLSLEDQKRVDALNDEIRQLQQENRQLLNERIKLEGIITRVETYLNENLRKRLDQVEQELNELRETEGGTVLTATTSELEAINKRVKDTMARSEDLDNSIDKTEAGIKELQKSMERWKNMEKEHMDAINHDTKELEKMTNRQGMLLKKKEECMKKIRELGSLPQEAFEKYQTLSLKQLFRKLEQCNTELKKYSHVNKKALDQFVNFSEQKEKLIKRQEELDRGYKSIMELMNVLELRKYEAIQLTFKQVSKNFSEVFQKLVPGGKATLVMKKGDVEGSQSQDEGEGSGESERGSGSQSSVPSVDQFTGVGIRVSFTGKQGEMREMQQLSGGQKSLVALALIFAIQKCDPAPFYLFDEIDQALDAQHRKAVSDMIMELAVHAQFITTTFRPELLESADKFYGVKFRNKVSHIDVITAEMAKDFVEDDTTHG
# B5: Structural maintenance of chromosomes protein 1A (other)
# chain: MGFLKLIEIENFKSYKGRQIIGPFQRFTAIIGPNGSGKSNLMDAISFVLGEKTSNLRVKTLRDLIHGAPVGKPAANRAFVSMVYSEEGAEDRTFARVIVGGSSEYKINNKVVQLHEYSEELEKLGILIKARNFLVFQGAVESIAMKNPKERTALFEEISRSGELAQEYDKRKKEMVKAEEDTQFNYHRKKNIAAERKEAKQEKEEADRYQRLKDEVVRAQVQLQLFKLYHNEVEIEKLNKELASKNKEIEKDKKRMDKVEDELKEKKKELGKMMREQQQIEKEIKEKDSELNQKRPQYIKAKENTSHKIKKLEAAKKSLQNAQKHYKKRKGDMDELEKEMLSVEKARQEFEERMEEESQSQGRDLTLEENQVKKYHRLKEEASKRAATLAQELEKFNRDQKADQDRLDLEERKKVETEAKIKQKLREIEENQKRIEKLEEYITTSKQSLEEQKKLEGELTEEVEMAKRRIDEINKELNQVMEQLGDARIDRQESSRQQRKAEIMESIKRLYPGSVYGRLIDLCQPTQKKYQIAVTKVLGKNMDAIIVDSEKTGRDCIQYIKEQRGEPETFLPLDYLEVKPTDEKLRELKGAKLVIDVIRYEPPHIKKALQYACGNALVCDNVEDARRIAFGGHQRHKTVALDGTLFQKSGVISGGASDLKAKARRWDEKAVDKLKEKKERLTEELKEQMKAKRKEAELRQVQSQAHGLQMRLKYSQSDLEQTKTRHLALNLQEKSKLESELANFGPRINDIKRIIQSREREMKDLKEKMNQVEDEVFEEFCREIGVRNIREFEEEKVKRQNEIAKKRLEFENQKTRLGIQLDFEKNQLKEDQDKVHMWEQTVKKDENEIEKLKKEEQRHMKIIDETMAQLQDLKNQHLAKKSEVNDKNHEMEEIRKKLGGANKEMTHLQKEVTAIETKLEQKRSDRHNLLQACKMQDIKLPLSKGTMDDISQEEGSSQGEDSVSGSQRISSIYAREALIEIDYGDLCEDLKDAQAEEEIKQEMNTLQQKLNEQQSVLQRIAAPNMKAMEKLESVRDKFQETSDEFEAARKRAKKAKQAFEQIKKERFDRFNACFESVATNIDEIYKALSRNSSAQAFLGPENPEEPYLDGINYNCVAPGKRFRPMDNLSGGEKTVAALALLFAIHSYKPAPFFVLDEIDAALDNTNIGKVANYIKEQSTCNFQAIVISLKEEFYTKAESLIGVYPEQGDCVISKVLTFDLTKYPDANPNPNEQ
# Target: T1, HA-PTEN (human, UniProt P60484 1-403)
# T1 construct: Expressed in DU145 cells and immunoprecipitated with anti-PTEN antibody for mass spectrometry; also called exogenous PTEN; pcDNA3-HA-PTEN; not shown: HA tag
# Assay: anti-PTEN immunoprecipitation from DU145 cells transfected with HA-PTEN, SDS-PAGE, mass-spectrometric peptide sequencing of the bands (association in the precipitate)
# Excerpt: FIG. 2A is a Western blot. Lysates from DU145 cells transfected with HA-PTEN were immunoprecipitated with an anti-PTEN antibody followed by mass-spectrometric peptide sequencing. WWP1 and NEDD4-1 were identified.
# In order to identify the E3 ligases that induce PTEN atypical K27-linked poly-ubiquitination, exogenous PTEN was immunoprecipitated from DU145 cells, followed by identification of the proteins that interacted with PTEN by mass spectrometry (FIG. 2A; FIG. 18).
row,binding result,Binder
1,binds,B1
2,binds,B2
3,binds,B3
4,binds,B4
5,binds,B5
